Holding throughout (assay): BLI
Details in all cases: modification not given

The target in one test is T1, EphB3, P54753.
T1 chain: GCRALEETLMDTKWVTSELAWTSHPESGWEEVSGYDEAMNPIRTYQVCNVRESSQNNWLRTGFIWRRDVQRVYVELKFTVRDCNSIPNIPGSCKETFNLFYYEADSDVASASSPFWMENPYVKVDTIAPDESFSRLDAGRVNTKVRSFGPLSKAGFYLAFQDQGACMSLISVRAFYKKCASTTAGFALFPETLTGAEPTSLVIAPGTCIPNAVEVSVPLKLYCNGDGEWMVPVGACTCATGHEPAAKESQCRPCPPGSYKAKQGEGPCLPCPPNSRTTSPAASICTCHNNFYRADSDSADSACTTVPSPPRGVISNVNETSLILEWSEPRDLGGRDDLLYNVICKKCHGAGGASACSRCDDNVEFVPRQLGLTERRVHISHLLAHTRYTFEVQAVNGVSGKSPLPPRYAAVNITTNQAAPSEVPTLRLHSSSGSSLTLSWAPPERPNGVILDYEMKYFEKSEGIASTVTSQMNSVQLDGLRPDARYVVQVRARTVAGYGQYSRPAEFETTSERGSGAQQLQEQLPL

The target of the next test is EphA2, P29317.
EphA2, P29317, sequence (P29317 25-534): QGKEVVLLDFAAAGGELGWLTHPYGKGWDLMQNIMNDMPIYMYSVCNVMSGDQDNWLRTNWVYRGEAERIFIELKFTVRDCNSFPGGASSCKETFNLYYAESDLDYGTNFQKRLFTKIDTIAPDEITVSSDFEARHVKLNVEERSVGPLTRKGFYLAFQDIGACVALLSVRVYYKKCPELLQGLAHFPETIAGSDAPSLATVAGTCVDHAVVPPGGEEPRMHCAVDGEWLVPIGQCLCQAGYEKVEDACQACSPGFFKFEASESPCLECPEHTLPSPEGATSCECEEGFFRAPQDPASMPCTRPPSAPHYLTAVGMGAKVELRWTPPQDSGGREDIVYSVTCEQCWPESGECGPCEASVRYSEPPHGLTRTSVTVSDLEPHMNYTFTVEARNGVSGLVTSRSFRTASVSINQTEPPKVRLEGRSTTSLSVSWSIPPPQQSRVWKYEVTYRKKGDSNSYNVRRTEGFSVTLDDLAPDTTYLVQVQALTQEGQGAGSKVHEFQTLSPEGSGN
For another test, the target named is T2, EphB2, P29323.
T2 chain: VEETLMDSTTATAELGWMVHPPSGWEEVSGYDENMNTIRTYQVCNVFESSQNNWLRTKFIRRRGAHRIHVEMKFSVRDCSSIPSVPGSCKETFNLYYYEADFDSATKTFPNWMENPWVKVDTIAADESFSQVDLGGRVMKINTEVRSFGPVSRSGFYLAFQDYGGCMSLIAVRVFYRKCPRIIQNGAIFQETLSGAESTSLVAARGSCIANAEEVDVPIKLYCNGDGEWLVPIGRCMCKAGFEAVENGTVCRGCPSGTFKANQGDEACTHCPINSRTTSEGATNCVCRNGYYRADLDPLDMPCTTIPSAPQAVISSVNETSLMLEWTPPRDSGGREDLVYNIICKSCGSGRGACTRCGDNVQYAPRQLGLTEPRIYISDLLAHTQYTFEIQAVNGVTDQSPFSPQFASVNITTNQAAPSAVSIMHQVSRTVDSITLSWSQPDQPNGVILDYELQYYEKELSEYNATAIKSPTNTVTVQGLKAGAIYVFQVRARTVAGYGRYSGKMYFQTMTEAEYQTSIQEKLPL

B1: xEFN_RBD2 (peptide)
chain: KFQLFSPFLWGFEF
A word on the Kd: it is the equilibrium constant for the complex coming apart. With B1, in the test with EphB3, P54753, the Kd came to 5070 µM.

B2: xEFN_RBD4 (peptide)
chain: QEFSPNLWGLEFKKN
Turning to B2, the Kd was 178 µM with EphA2, P29317; 156 µM with EphB3, P54753; 263 µM with EphB2, P29323.
